Results reported in IntAct's records for PubMed 15377662.

B1: Ras-related protein Rab-5A (Homo sapiens), P20339 (parent)
chain: MASRGATRPNGPNTGNKICQFKLVLLGESAVGKSSLVLRFVKGQFHEFQESTIGAAFLTQTVCLDDTTVKFEIWDTAGQERYHSLAPMYYRGAQAAIVVYDITNEESFARAKNWVKELQRQASPNIVIALSGNKADLANKRAVDFQEAQSYADDNSLLFMETSAKTSMNVNEIFMAIAKKLPKNEPQNPGANSARGRGVDLTEPTQPTRNQCCSN

Variants of: B1
Conditions: with p85a_bovin PIK3R1, P23727
Chain of p85a_bovin PIK3R1, P23727 (P23727 whole entry): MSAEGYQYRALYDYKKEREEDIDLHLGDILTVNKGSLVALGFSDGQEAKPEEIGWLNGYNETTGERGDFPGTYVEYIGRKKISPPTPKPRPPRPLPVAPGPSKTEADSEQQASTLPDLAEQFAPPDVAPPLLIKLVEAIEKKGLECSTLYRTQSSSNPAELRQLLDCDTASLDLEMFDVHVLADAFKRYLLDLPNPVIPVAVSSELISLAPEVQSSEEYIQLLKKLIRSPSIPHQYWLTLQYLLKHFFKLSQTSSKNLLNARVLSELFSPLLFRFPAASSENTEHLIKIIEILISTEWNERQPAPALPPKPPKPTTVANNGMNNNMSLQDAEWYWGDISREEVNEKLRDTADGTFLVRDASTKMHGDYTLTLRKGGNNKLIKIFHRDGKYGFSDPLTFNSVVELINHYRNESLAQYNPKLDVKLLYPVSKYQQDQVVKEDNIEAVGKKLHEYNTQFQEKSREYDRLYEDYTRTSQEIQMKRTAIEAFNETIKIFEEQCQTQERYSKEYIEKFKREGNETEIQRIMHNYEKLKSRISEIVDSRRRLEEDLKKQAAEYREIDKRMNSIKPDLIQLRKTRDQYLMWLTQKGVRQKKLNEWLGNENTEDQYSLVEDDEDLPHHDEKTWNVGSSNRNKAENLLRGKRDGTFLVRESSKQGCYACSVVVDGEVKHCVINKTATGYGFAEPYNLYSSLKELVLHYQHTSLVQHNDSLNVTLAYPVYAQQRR
For Q79L, the “effect of a mutation on the interaction” value was “decreasing interaction”.

Variants of: B1
Conditions: with p85a_bovin PIK3R1, P23727
Remark: another data set of the same source
For S34N, the “effect of a mutation on the interaction” value was “disrupting interaction”.
